Laboratory results reported in US20200024330A1.

Experiments:
Experiment in all cases: cell-based or functional assay
[1] = target: HIV-1 Env of isolate MGRM-A-003 (HIV-1)
[2] = target: HIV-1 Env of isolate MGRM-AE-003 (HIV-1)
[3] = target: HIV-1 93UG077 envelope glycoprotein (Env) (HIV-1)
[4] = target: HIV-1 Env of isolate 93UG077 (HIV-1)
[5] = target: HIV-1 MGRM-C-026 envelope glycoprotein (Env) (HIV-1)
[6] = target: HIV-1 94UG103 envelope glycoprotein (Env) (HIV-1)
[7] = target: HIV-1 JR-CSF Env G324A (HIV-1 isolate JR-CSF) (UniProt P20871)
[8] = target: HIV-1 Env of isolate 92WR009 (HIV-1)
[9] = target: HIV-1 92BR020 envelope glycoprotein (Env) (HIV-1)
[10] = target: HIV-1 JRCSF envelope glycoprotein (Env) (HIV-1) (UniProt P20871)
[11] = target: HIV-1 Env of isolate MGRM-A-009 (HIV-1)
[12] = target: HIV-1 Env of isolate MGRM-A-013 (HIV-1)
[13] = target: HIV-1 Env of isolate VLGCA1 (HIV-1)
[14] = target: HIV-1 Env of isolate MGRM-A-008 (HIV-1)
[15] = target: HIV-1 JRFL envelope glycoprotein (Env) (HIV-1)
[16] = target: HIV-1 Env of isolate MGRM-A-012 (HIV-1)
[17] = target: HIV-1 Env of isolate 92WR021 (HIV-1)
[18] = target: HIV-1 Env of isolate MGRM-A-014 (HIV-1)
[19] = target: HIV-1 Env of isolate MGRM-A-005 (HIV-1)
[20] = target: HIV-1 Env of isolate MGRM-A-004 (HIV-1)
[21] = target: HIV-1 Env of isolate MGRM-A-007 (HIV-1)
[22] = target: HIV-1 Env of isolate MGRM-A-011 (HIV-1)
[23] = target: HIV-1 Env of isolate MGRM-A-006 (HIV-1)
[24] = target: HIV-1 MGRM-C-028 envelope glycoprotein (Env) (HIV-1)
[25] = target: HIV-1 Env of isolate 92WR026 (HIV-1)
[26] = target: HIV-1 Env of isolate 94KE105 (HIV-1)
[27] = target: HIV-1 NL43 envelope glycoprotein (Env) (HIV-1)
[28] = target: HIV-1 Env of isolate 92UG037 (HIV-1)
[29] = target: HIV-1 MGRM-A-010 envelope glycoprotein (Env) (HIV-1)
[30] = target: HIV-1 92RW020 envelope glycoprotein (Env) (HIV-1)
[31] = target: HIV-1 APV13 envelope glycoprotein (Env) (HIV-1)
[32] = target: HIV-1 Env of isolate MGRM-A-001 (HIV-1)
[33] = target: HIV-1 APV17 envelope glycoprotein (Env) (HIV-1)
[34] = target: HIV-1 Env of isolate 94UG103 (HIV-1)
[35] = target: HIV-1 Env of isolate MGRM-A-010 (HIV-1)
[36] = target: HIV-1 Env of isolate 92BR020 (HIV-1)
[37] = target: HIV-1 Env of isolate MGRM-AE-002 (HIV-1)

B1: PGT-123 (antibody, V domains shown)
VH: QLHLQESGPGLVKPPETLSLTCSVSGASINDAYWSWIRQSPGKRPEWVGYVHHSGDTNYNPSLKRRVTFSLDTAKNEVSLKLVDLTAADSATYFCARALHGKRIYGIVALGELFTYFYMDVWGKGTAVTVSS
VL: SSMSVSPGETAKISCGKESIGSRAVQWYQQKPGQPPSLIIYNNQDRPAGVPERFSASPDFRPGTTATLTITNVDAEDEADYYCHIYDARGGTNWVFDRGTTLTVL
IC50 (µg/mL), pseudovirus neutralization [1]: 0.495 µg/mL | IC50 (µg/mL), pseudovirus neutralization [2]: > 50 µg/mL | IC50 neutralization [3]: 0.0303 µg/mL | IC50 (µg/mL), pseudovirus neutralization [4]: 0.028 µg/mL | IC50 neutralization [5]: 0.0031 µg/mL | IC50 neutralization [6]: 0.846 µg/mL | Fold IC50 increase relative to wild-type [7]: 14.5 fold | IC50 (µg/mL), pseudovirus neutralization [8]: 15.7 µg/mL | IC50 neutralization [9]: 0.013 µg/mL | IC50 neutralization [10]: 0.0423 µg/mL | IC50 (µg/mL), pseudovirus neutralization [11]: 0.004 µg/mL | IC50 (µg/mL), pseudovirus neutralization [12]: 0.565 µg/mL | IC50 (µg/mL), pseudovirus neutralization [13]: > 50 µg/mL | IC50 (µg/mL), pseudovirus neutralization [14]: > 50 µg/mL | IC50 neutralization [15]: 0.0283 µg/mL | IC50 (µg/mL), pseudovirus neutralization [16]: 0.192 µg/mL | IC50 (µg/mL), pseudovirus neutralization [17]: 0.005 µg/mL | IC50 (µg/mL), pseudovirus neutralization [18]: 0.003 µg/mL | IC50 (µg/mL), pseudovirus neutralization [19]: > 50 µg/mL | IC50 (µg/mL), pseudovirus neutralization [20]: > 50 µg/mL | IC50 (µg/mL), pseudovirus neutralization [21]: > 50 µg/mL | IC50 (µg/mL), pseudovirus neutralization [22]: > 50 µg/mL | IC50 (µg/mL), pseudovirus neutralization [23]: > 50 µg/mL | IC50 neutralization [24]: 0.443 µg/mL | IC50 (µg/mL), pseudovirus neutralization [25]: 0.012 µg/mL | IC50 (µg/mL), pseudovirus neutralization [26]: 0.024 µg/mL | IC50 neutralization [27]: > 10 µg/mL | IC50 (µg/mL), pseudovirus neutralization [28]: 0.023 µg/mL | IC50 neutralization [29]: 0.492 µg/mL | IC50 neutralization [30]: 0.0038 µg/mL | IC50 neutralization [31]: 0.222 µg/mL | IC50 (µg/mL), pseudovirus neutralization [32]: > 50 µg/mL | IC50 neutralization [33]: 0.18 µg/mL | IC50 (µg/mL), pseudovirus neutralization [34]: 0.678 µg/mL | Primary Neutralization Index (B cell culture well 4858 P8) [34]: 1.1 | IC50 (µg/mL), pseudovirus neutralization [35]: 0.705 µg/mL | Primary Neutralization Index (B cell culture well 4858 P8) [36]: 2.8 | IC50 (µg/mL), pseudovirus neutralization [37]: > 50 µg/mL
